Assay results reported in publication PMC10641069, “Intra- and inter-molecular regulation by intrinsically-disordered regions governs PUF protein RNA binding” (Nature Communications, 2023).
Changes are numbered by the printed parent chain. Numbers in names are those of the source. Where “and” joins values, the source holds several entries; their conditions need not be identical. Equal values may be shown once. Read-outs that look alike come from different tables or passages of the source.

Experiments:
[1] = system: gld-1 FBEa RNA; experiment: Electrophoretic mobility shift assay (EMSA), RNA binding; set-up: species or system C. elegans
Method: A 3′-Cy5-labeled synthetic RNA was ordered from IDT (gld-1 FBEa, 5′-[…]-3′). The FBF-2 proteins were serially diluted 2-fold from the highest concentration of 10 µM in the buffer used for gel filtration (20 mM HEPES pH 7.4, 150 mM NaCl, and 0.5 mM TCEP). 10 µl of the serially diluted protein samples were mixed with 10 µl RNA (10 nM) in a 2× buffer of 10 mM HEPES pH 7.4, 0.01% (v/v) Tween 20, 0.1 mg/ml BSA, 0.1 mg/ml yeast tRNA, and 2 mM DTT. For experiments in the presence of LST-1, LST-1 proteins at constant concentration were preincubated with FBF-2 at 4 °C for 2 h. The LST-1 concentrations were chosen based on their Kd’s for interaction with FBF-2. The final FBF-2 concentrations ranged from 5000 nM to 0.6 nM, and the LST-1 A or B concentrations were constant at 150 μM or 50 μM, respectively. The protein-RNA mixtures were incubated at 4 °C overnight. The samples were resolved on 10% TBE polyacrylamide gels run at constant voltage (100 V) with 1× TBE buffer at room temperature for 35 min. The gels were scanned and visualized with a Typhoon FLA 9500 imager using the Cy5 channel (excitation wavelength 635 nm). Band intensities were quantified with ImageQuant 5.2 (Cytiva). The data were fit with GraphPad Prism (version 9.2.0) using nonlinear regression with a one-site specific binding model. Mean Kd’s and standard error of the mean (SEM) from three or more technical replicates are reported (Supplementary Table 4). Full scan images for the replicates shown in the main figures and gel images for all replicates are included in a source data file.

[2] = system: gld-1 FBEa RNA; experiment: Surface plasmon resonance, RNA-binding kinetics; set-up: species or system C. elegans
Method: Kinetics of FBF-2 binding to the gld-1 FBEa RNA were measured using a 2-channel OpenSPR instrument (Nicoya). A 3′-biotin-labeled synthetic RNA was ordered from Horizon Discovery (gld-1 FBEa, 5′-AUCAUGUGCCAUACA-biotin-3′). The 3′-biotinylated RNA was immobilized on streptavidin-treated biotin sensor chips (Nicoya). All experiments were performed at 20 °C with a buffer of 20 mM HEPES, pH 7.4, 150 mM NaCl, and 2 mM DTT. SPR data were collected using OpenSPR (Nicoya, version 4.3). FBF-2 proteins were injected with a flow rate of 20 µl/min. Data were obtained at five different protein concentrations (25, 50, 100, 200, and 400 nM for wild type RBD + CT; 12.5, 25, 50, 100, and 200 nM for RBD + CT mutants and wild type RBD). Sensor chips were regenerated using 0.05% or 0.1% (v/v) SDS. For each experiment, five binding curves were simultaneously fit using a 1:1 binding model with the TraceDrawer software (Ridgeview Instruments, version 1.9.1). Mean values and standard deviation were calculated from two technical replicates. Despite our efforts, the fit of the binding curves for the association phase of FBF-2 RBD and FBF-2 RBD + CT mutants is poorer than the fit for FBF-2 RBD + CT WT. The appearance of the curves is consistent with the derived kon and koff values, and importantly, the curve fit for the dissociation phase is better.

[3] = Melting temperature of FBF-2 proteins; format: physicochemical; conditions: for thermal stability: in words, vs RBD alone or vs RBD + CT
Method: Mutants of FBF-2 RBD + CT: Y479A (5′-[…]), L610A (5′-[…]), and Loop6A (E592A, D594A, E597A, E599A, E604A, E605A; 5′-[…]) were generated by site-directed mutagenesis with the primers indicated. Plasmid sequences were verified by DNA sequencing (Azenta Life Sciences). Protein variants were expressed and purified like wild type proteins. Melting temperatures of wild type and mutant proteins were assessed by differential scanning […]. Reaction mixtures (total volume of 20 μl) contained ~0.3 mg/ml FBF-2 proteins and Sypro Orange dye (1:1000 dilution) (Sigma). Fluorescent intensity was collected from 25 °C to 95 °C (3 °C increment/min) with a real time PCR instrument (Applied Biosystems™ QuantStudio 7 Flex System) using excitation and emission wavelengths of 470 nm and 586 nm, respectively. Protein Thermal Shift^TM software (Applied Biosystems, version 1.4) was used to analyze protein melting curves and calculate melting temperatures (Tm).

[4] = no LST-1, mean ± SEM of independent technical replicates (n = 3-5), 4 °C overnight, pH 7.4, Cy5-RNA 5′-AUCAUGUGCCAUAC-3′
[5] = derived from on/off rates, mean ± SD, two technical replicates
[6] = mean ± SD, two technical replicates, 20 °C, pH 7.4, 1:1 model
[7] = mean ± SD, three technical replicates, ~0.3 mg/ml protein, Sypro Orange, 25 to 95 °C, fluorescence

B1: FBF-2 RBD + CT: C. elegans FBF-2 RBD plus C-terminal tail, residues 164-632 (protein)
chain: SNNVLPTWSLDSNGEMRSRLSLSEVLDSGDLMKFAVDKTGCQFLEKAVKGSLTSYQKFQLFEQVIGRKDDFLKLSTNIFGNYLVQSVIGISLATNDDGYTKRQEKLKNFISSQMTDMCLDKFACRVIQSSLQNMDLSLACKLVQALPRDARLIAICVDQNANHVIQKVVAVIPLKNWEFIVDFVATPEHLRQICSDKYGCRVVQTIIEKLTADSMNVDLTSAAQNLRERALQRLMTSVTNRCQELATNEYANYIIQHIVSNDDLAVYRECIIEKCLMRNLLSLSQEKFASHVVEKAFLHAPLELLAEMMDEIFDGYIPHPDTGKDALDIMMFHQFGNYVVQCMLTICCDAVSGRRQTKEGGYDHAISFQDWLKKLHSRVTKERHRLSRFSSGKKMIETLANLRSTHPIYELQSSGHDSFKTDYFSTASEHDGPELEKNGIEEGSLMLEPRSNKSSVSVKFSSSGSHGDD
modifications: left off: His6-SUMO, N-terminal, cleaved
[1]; RBD + CT vs RBD alone
  fold weaker RNA-binding affinity: ~5 fold
[1]; [4]
  Kd: 334 nM
[1]; no LST-1, replicate 1
  Kd: 294 nM
[1]; no LST-1, replicate 2
  Kd: 394 nM
[1]; no LST-1, replicate 3
  Kd: 379 nM
[1]; no LST-1, replicate 4
  Kd: 270 nM
[1]; pH 7.4
  Kd: 114 nM and 68 nM
[1]; with 150 μM LST-1 A, replicate 1
  Kd: 111 nM
[1]; with 150 μM LST-1 A, replicate 2
  Kd: 106 nM
[2]; RBD + CT vs RBD
  fold faster off rate: ~ 5 fold
[2]; [5]
  Kd: 65.1 ± 21.1 nM
[2]; [6]
  koff: 0.00442 s⁻¹
  kon: 71000 M⁻¹ s⁻¹
[2]; replicate 1
  Kd: 80 nM
  kon: 58700 M⁻¹ s⁻¹
[2]; replicate 1, read-out: koff
  koff: 0.00469 s⁻¹
[2]; replicate 2
  Kd: 50 nM
  kon: 82500 M⁻¹ s⁻¹
[2]; replicate 2, read-out: koff
  koff: 0.00414 s⁻¹
[3]
  thermal stability: increased thermal stability compared to the RBD alone
[3]; [7]
  Tm: 40.24 ± 0.12 °C
[3]; replicate 1
  Tm: 40.06 °C
[3]; replicate 2
  Tm: 40.48 °C
[3]; replicate 3
  Tm: 40.20 °C

B2: FBF-2 RBD + CT L610A: FBF-2 RBD + CT mutated in the C-terminal tail (L610A) (protein)
chain: B1 chain with L447A
modifications: left off: His6-SUMO, N-terminal, cleaved
[1]
  Kd: 61 nM and 93 nM and 91 nM
[1]; [4]
  Kd: 51 nM
[1]; no LST-1, replicate 1
  Kd: 38 nM
[1]; no LST-1, replicate 2
  Kd: 32 nM
[1]; no LST-1, replicate 3
  Kd: 66 nM
[1]; no LST-1, replicate 4
  Kd: 30 nM
[1]; no LST-1, replicate 5
  Kd: 89 nM
[1]; pH 7.4
  Kd: 82 ± 18 nM
[2]; [5]
  Kd: 9.4 ± 3.6 nM
[2]; [6]
  koff: 1.36 ± 0.11 x10^-3 s^-1
  kon: 15.5 ± 4.7 x10^4 M^-1 s^-1
[2]; replicate 1
  Kd: 11.9 nM
  kon: 121000 M⁻¹ s⁻¹
[2]; replicate 1, read-out: koff
  koff: 0.00144 s⁻¹
[2]; replicate 2
  Kd: 6.8 nM
  kon: 188000 M⁻¹ s⁻¹
[2]; replicate 2, read-out: koff
  koff: 0.00128 s⁻¹
[3]
  thermal stability: melting temperature of the mutated protein near that of the RBD alone
[3]; [7]
  Tm: 35.63 ± 0.05 °C
[3]; replicate 1
  Tm: 35.72 °C
[3]; replicate 2
  Tm: 35.58 °C
[3]; replicate 3
  Tm: 35.58 °C

B3: FBF-2 RBD: FBF-2 RNA-binding domain, residues 164-575, lacking the C-terminal tail (protein)
chain: SNNVLPTWSLDSNGEMRSRLSLSEVLDSGDLMKFAVDKTGCQFLEKAVKGSLTSYQKFQLFEQVIGRKDDFLKLSTNIFGNYLVQSVIGISLATNDDGYTKRQEKLKNFISSQMTDMCLDKFACRVIQSSLQNMDLSLACKLVQALPRDARLIAICVDQNANHVIQKVVAVIPLKNWEFIVDFVATPEHLRQICSDKYGCRVVQTIIEKLTADSMNVDLTSAAQNLRERALQRLMTSVTNRCQELATNEYANYIIQHIVSNDDLAVYRECIIEKCLMRNLLSLSQEKFASHVVEKAFLHAPLELLAEMMDEIFDGYIPHPDTGKDALDIMMFHQFGNYVVQCMLTICCDAVSGRRQTKEGGYDHAISFQDWLKKLHSRVTKERHRLSRFSSGKKMIETLANLRSTHPIYELQ
modifications: left off: His6-SUMO, N-terminal, cleaved
[1]; in the presence of 50 μM LST-1 B, mean ± SEM, n = 3, 4 °C overnight, pH 7.4
  Kd: 176 nM
[1]; [4]
  Kd: 70 nM
[1]; no LST-1, replicate 1
  Kd: 75 nM
[1]; no LST-1, replicate 2
  Kd: 62 nM
[1]; no LST-1, replicate 3
  Kd: 98 nM
[1]; no LST-1, replicate 4
  Kd: 44 nM
[1]; with 50 μM LST-1 B, replicate 1
  Kd: 148 nM
[1]; with 50 μM LST-1 B, replicate 2
  Kd: 180 nM
[1]; with 50 μM LST-1 B, replicate 3
  Kd: 201 nM
[2]; [5]
  Kd: 6.6 ± 2.3 nM
[2]; [6]
  koff: 0.00086 s⁻¹
  kon: 136000 M⁻¹ s⁻¹
[2]; replicate 1
  Kd: 8.2 nM
  kon: 120000 M⁻¹ s⁻¹
[2]; replicate 1, read-out: koff
  koff: 0.000979 s⁻¹
[2]; replicate 2
  Kd: 5 nM
  kon: 151000 M⁻¹ s⁻¹
[2]; replicate 2, read-out: koff
  koff: 0.00075 s⁻¹
[3]; [7]
  Tm: 36.32 ± 0.05 °C
[3]; replicate 1
  Tm: 36.42 °C
[3]; replicate 2
  Tm: 36.28 °C
[3]; replicate 3
  Tm: 36.28 °C

B4: FBF-2 RBD + CT Loop6A: FBF-2 RBD + CT with E592A, D594A, E597A, E599A, E604A, E605A (protein)
chain: B1 chain with E429A, D431A, E434A, E436A, E441A, E442A
modifications: left off: His6-SUMO, N-terminal, cleaved
notes: FBF-2 RBD + CT with E592A, D594A, E597A, E599A, E604A, E605A
[1]
  Kd: 142 nM and 175 nM and 180 nM
[1]; [4]
  Kd: 101 nM
[1]; no LST-1, replicate 1
  Kd: 122 nM
[1]; no LST-1, replicate 2
  Kd: 100 nM
[1]; no LST-1, replicate 3
  Kd: 81 nM
[1]; pH 7.4
  Kd: 166 ± 21 nM
[2]; [5]
  Kd: 9.5 ± 4.2 nM
[2]; [6]
  koff: 0.94 ± 0.05 x10^-3 s^-1
  kon: 10.9 ± 4.3 x10^4 M^-1 s^-1
[2]; replicate 1
  kon: 78000 M⁻¹ s⁻¹
[2]; replicate 1, read-out: koff
  koff: 0.00097 s⁻¹
[2]; replicate 2
  kon: 139000 M⁻¹ s⁻¹
[2]; replicate 2, read-out: koff
  koff: 0.00091 s⁻¹
[3]
  thermal stability: only modestly decreased the thermal stability
[3]; [7]
  Tm: 37.58 ± 0.05 °C
[3]; replicate 1
  Tm: 37.54 °C
[3]; replicate 2
  Tm: 37.68 °C
[3]; replicate 3
  Tm: 37.54 °C
